According to the nanobody polyreactivity screen of Harvey et al. (2022):

Experiment: yeast display, Sf9 membrane polyspecificity reagent, FACS + sequencing; frameworks hold sequencing errors
Procedure, shortened: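 After 36–48 hours of galactose induction, yeast (Saccharomyces cerevisiae BJ5465) displaying a synthetic nanobody library were stained at 4 °C for 1 hour with 10% biotinylated, detergent-solubilized Sf9 membrane reagent. Streptavidin microbeads enriched the stained cells before FACS sorting into low and high (top ~1%) gates on anti-HA and streptavidin fluorescence. Each clone's polyreactivity label reflects its gate of origin.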

Sequence | polyreactivity (PSR sort gate)
QVQLVESGGGLVQAGGSLRLSCAASGYTFGGNAMGWYRQAPGKERELVAAISNTGGRTNYADSVKGRFTISRDNAKNTVYLQMNSLKPEDTAVSYCAKSVYYRDRYGGDYWGQGTQVTVSS | low polyreactivity
QVQLVESGGGLVQAGGSLRLSCAASGSILPYNAMGWYRQAPGKERELVCSSSRGGGTNYADSVKGRFTISRDNAKNTVYLQMNSLKPEDTAVYYCAARTLRVDYDSHWYSLVDYWGQGTQVTVSS | low polyreactivity
QVQLVESGGGLVPAGGSLRLSCAASGFTFTRYAMGWYRQARGKERELVAAISWNGGSTYYADSVKGRFTISRDNAKKTVYLQMNSLKPEDTAVYYCAVRFKYQWSNFGYWGQGTQVTVSS | high polyreactivity
QVQLQESGGGLVQAGGSPRLSCAASDNIFPDSVMCWYRQAPGKERELVATIGFGATTNSADSVKGRFTISRDNAKNTVYLQMNSLKPEDTAVYSCAADPLNYEYFCYWGQGTQVTVSS | low polyreactivity
QVQLVESGGGLVQAGGSLRLSCAASGNIFGVYTMGWYRQAPGKERELVAAISDGGSTYYADSVKVRFTISRDNAKNTVYLQMNSLKPEDTAVYYCAASKIGYWGDYFRYYYWGQGTQVTVSS | low polyreactivity
QVQLVESGGGLVQAGGSLRLSCAASGSIFYRNVMGWYRQAPGKERELVAAISQRGGSTYYADSVKGRFTISRDNAKNTVYLQMNSLKPEDTAVYYCNAASRGAGTSIWSWYDHWGQGTQVTVSS | low polyreactivity
QVQLVESGGGLVQAGGRLRLSCAASGSTFVYNAMGWYRPAPGKERELVAAISRSGGRTYYADSVKGRFTISRDNAKNSVYLQMNSLKPEDTAVYYCAVLLRGIEYDYWGQGTQVTVSS | high polyreactivity
QVQLVESGGGLVQAGGSLRLSCAASGFTFYDYAMGRYIQAPGKERELVAGINSGDSTYYADSVKGRFTISRDNAKNSVYLLMNSLKPEDSAVYYCAADWAWLQWAYDYWGQGTQVTVSS | low polyreactivity
QVQLVESGGGLVQAGGSLRLSCAASGLTFAFNVMGWYRQAPGKERELVAAISASGASTYYADSVKGRFTISRDTAKNTVYLQMNSLKPEDTAVYYCAALGYCFSYRYDYWGQGTQVTVSS | high polyreactivity
QVQVVESGGGLVQAGGSLRLSCAASGGTFGRYTMGWYRQAPGKERELVAAITYGGGSTYYADSVKGRFTISRDNAKNTVYLQMNSLKPEETAVYYCARRGILRGSRYDYWGQGTQVTVSS | high polyreactivity
QVQLVESGGGLVQAGGSLRLSCAASGIIFSYNVMGWSREARGKEREFVAAISRSVGSTYYADSVKGRFTISRDNAKNTVYLPMNSLKPEDTAVYYCNARGKRRGKIPYSSYASSYDSWGQGTQVTVSS | high polyreactivity
QVQLVESGGGLVQAGGSLRLSCAASGSTFSSYAMGWYRQAPGKERELVAGIAWGGSSTDYADSVKWRFTISRDTAKNTVYLQMNSLKPEDTAVYYCARRYRRGWSTLDYWGQGTQVTVSS | low polyreactivity
QVQLQESGGGLVQAGGSLRLSCAASGSISRYYDMGWYRQAPGKELEFVAGISGGAITYYADSVKGRFTISRDNAKNTVYLQMNSLKPEDTAVYYCAADTGVYQYHSYWGQGTQVTVSS | low polyreactivity
QFQLVESGGGLVHAGGSLRLSCAASGITFQWNSMGWYRQAPGKERELVAVISSDGRTYYADSVKGRFTISRDNAKYTVYLQMNSLKPEDTAVYYCNADRSVIHRGYIWQPGRNDYWGHGTQVTVSS | low polyreactivity
QVQLVESGGGLVQAGGSLRLSCAASGNIFTYYVMGWYRQAPGKERELVAAISRRGGSTYYADSVKGRFTISRDNAKNTVYLQMNSLKPEDTAVYYCAKKYPRDMDYWGQGTQVTVSS | high polyreactivity
QVQLHESGGGLVQAGGSLRLSCAASGTISYAGPMGWSRQAPGKEREFVAGIGVGSNTNYADSVKGRYTIIRANAKNTVALQMTCLKPEDTAVYYCAVGGYAPLGRPYWGQGTHVTVSS | low polyreactivity
QVQLEESGGGLVQAGGSLRLSCAASGSTFYLYDMGWYRQAPGKERELVAVISWSGGSTSYADSVKGRFTISRDNAKNTIYLQMNSLKPEDTAVYYCNTDFYHWGQGTQVTVSS | low polyreactivity
